In assay [1] the target is RGMA, full-length ectodomain (human) (UniProt Q96B86). The assay can be described thus: SPR. Background: In SPR one partner is held on a chip, and binding of the other changes the refractive index at the surface.
Assay [2] deals with RGMC, full-length ectodomain (human) (UniProt Q6ZVN8). The experiment in a line: SPR.
In assay [3] the target is ectodomain of RGMB (eRGMB), wild type (human) (UniProt Q6NW40). The experiment in a line: SPR.
For assay [4] the target is unchanged. The assay can be described thus: AUC.
For assay [5] the target is unchanged. The experiment in a line: multiangle light scattering.
In assay [6] the target is eRGMB-P206N (human) (UniProt Q6NW40). The assay can be described thus: AUC.
The target of assay [7] is ectodomain of RGMB (eRGMB), wild type (human) (UniProt Q6NW40). The assay can be described thus: AUC. The source holds these as a separate data set.

As a reminder, the stoichiometry N is a count of units in the complex or per binding partner.

UniProt Q96B86, sequence (Q96B86 48-424): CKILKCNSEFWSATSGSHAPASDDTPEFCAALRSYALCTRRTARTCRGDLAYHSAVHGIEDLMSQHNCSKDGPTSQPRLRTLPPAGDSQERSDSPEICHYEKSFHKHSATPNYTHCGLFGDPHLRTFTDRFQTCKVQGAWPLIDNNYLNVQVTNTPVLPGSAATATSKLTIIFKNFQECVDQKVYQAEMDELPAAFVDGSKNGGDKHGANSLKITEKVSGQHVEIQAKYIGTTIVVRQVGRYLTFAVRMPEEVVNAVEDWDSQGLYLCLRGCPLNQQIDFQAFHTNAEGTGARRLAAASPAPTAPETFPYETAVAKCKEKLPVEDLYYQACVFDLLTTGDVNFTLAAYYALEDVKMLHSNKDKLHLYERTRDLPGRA
UniProt Q6ZVN8, sequence (Q6ZVN8 36-400): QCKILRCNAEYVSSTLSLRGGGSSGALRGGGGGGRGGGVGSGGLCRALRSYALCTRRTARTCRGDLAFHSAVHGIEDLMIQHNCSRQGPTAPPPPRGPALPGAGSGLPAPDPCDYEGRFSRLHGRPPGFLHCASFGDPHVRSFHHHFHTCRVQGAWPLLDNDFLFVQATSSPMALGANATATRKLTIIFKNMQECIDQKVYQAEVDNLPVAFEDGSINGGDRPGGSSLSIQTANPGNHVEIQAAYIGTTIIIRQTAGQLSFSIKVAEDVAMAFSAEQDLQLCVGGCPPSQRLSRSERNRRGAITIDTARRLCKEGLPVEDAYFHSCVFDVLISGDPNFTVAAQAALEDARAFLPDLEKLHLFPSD

Regarding “full-length DCC ectodomain (from UniProt P43146 26-1097) (domain or fragment)”, the interaction relative to the equivalent NEO1 construct in assay [1], in assay [2] and in assay [3] was 0.001 fold in each case.

For the substance “NEO1_FN56M (from UniProt P97798 883-1136) (domain or fragment)”, the stoichiometry N in assay [4], in assay [5], in assay [6] and in assay [7] was 1 throughout.

Source of the values: paper PMC4730555.
